Assay results reported in article PMC11403621, “Selective Aurora A-TPX2 Interaction Inhibitors Have In Vivo Efficacy as Targeted Antimitotic Agents” (Journal of Medicinal Chemistry, 2024).
No end group written: not given here.

T1: Aurora A kinase domain (residues 126–390) of human Aurora A with hexa-His tag (human, UniProt O14965 126-390)
T1 construct: Construct for biophysical assays; Co-expressed with λ phosphatase, so probably not phosphorylated (surmise); The crystallography constructs differ (Thr287Ala or Cys290Ala); also called Aurora A protein; pBAT4-AurAS.003; source: E. coli BL21(DE3) with pUBS520, double cistronic construct with λ phosphatase, purified (HisTrap, Superdex 75)
T1 sequence (looked up): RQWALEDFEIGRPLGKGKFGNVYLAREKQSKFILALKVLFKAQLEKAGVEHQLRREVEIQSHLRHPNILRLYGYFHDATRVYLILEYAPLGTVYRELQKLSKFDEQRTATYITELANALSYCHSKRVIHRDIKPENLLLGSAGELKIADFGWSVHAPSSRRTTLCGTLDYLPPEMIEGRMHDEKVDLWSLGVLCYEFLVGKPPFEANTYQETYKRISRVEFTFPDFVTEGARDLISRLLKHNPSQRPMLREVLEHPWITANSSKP


What was measured:
[1] = biological target: T1, Aurora A kinase domain (residues …); assay: ligand-observed NMR (CPMG) competition; small-molecule fragments bound to Aurora A, displaced by added TPX2 peptide 7-22 but not by a tight-binding ATP-site ligand; details: both partners purified
[2] = biological target: T1, Aurora A kinase domain (residues …); assay: fluorescence polarisation; direct titration of up to 200 nM Aurora A to 11 nM labeled TPX2 peptide; 100 mM HEPES pH 7.4, 100 mM magnesium acetate, 50 mM NaCl, 0.02% P20, 1 mM DTT, 1 mM ATP, 10% (v/v) DMSO; details: both partners purified

binding result [1]	Kd [2]	Binder
binds	–	SYSYDAPSDFINFSSL (peptide, UniProt Q9ULW0 7-22, looked up, TPX2, UniProt Q9ULW0 (printed for the longer peptide), amino acids 7-22; detailed methods are in the Supporting Information PDF) [TPX2 peptide fragment (amino acids 7–22)]
–	1.2 nM	GPGSYSYDAPSDFINFSSLDDEGDTQNIDSWFEEKANLENLKGGGC(Alexa Fluor 488 C5 maleimide)SS (residues left at the N-terminus before the TPX2 part in the printed peptide (after HRV 3C cleavage); TPX2, UniProt Q9ULW0, residues 7-43; C-terminal tail as printed: LK followed by the stated GGGCSS tail; the cysteine carries the dye; Whole printed peptide: [residues removed]; also called labeled TPX2 peptide; not shown: His-tag, N-terminal, cleaved; GB1, N-terminal, cleaved) [TPX2 peptide (residues 7–43) with a C-terminal GGGCSS tail, labeled with Alexa Fluor 488]
